Results reported in patent CN1930187A (ABGENIX INC, dated 2007).

T1: EGFRvIII PEP3 peptide conjugated to OVA (EGFRvIII肽-OVA) (human, Cys 14 coupled to maleimide-activated ovalbumin (peptide:OVA 14.5:1))
T1 construct: also called EGFRvIII peptide-OVA; VIII-pep-OVA
T1 peptide: LEEKKGNYVVTDHC


Tests used:
[1] = biological target: EGFRvIII (full length, expressed by cells: NR6 M, H1477, 300.19/EGFRvIII) (human, UniProt P00533 298-1210); assay: cell-based or functional assay
[2] = biological target: T1, EGFRvIII PEP3 peptide conjugated to OVA …; assay: binding to pep3 (XenoMax screen)

Row | %内在化 [1] [%] | binding result [2] | Binder
1 | 20.1 |  | SC-EGFRvIII-XG2-170 (antibody, human IgG1, V domains shown) VH: QVQLQQSGPGLVKPSQTLSLTCAISGDSVSSNNAAWNWIRQSPARGLEWLGRTYYRSKWYNDYVVSVKSRITINPDTSKNQFSLQLNSVTPEDTAVYYCVRATAFDYWGQGTLVTVSS VL: AIVLTQTPLSSPVTLGQPASISCRSSQSLVHRDGNTYLSWLQQRPGQPPRLLIYKISNRFSGVPDRFSGSGAGTDFTLKISRVEPDDVGVYYCMHTTQLPWTFGQGTKVEIK
2 | 72.4 |  | AB-EGFRvIII-XG1-095 (antibody, human IgG1, V domains shown) VH: QVQLQESGPFLVKPSQTLSLTCTVSGGSISSGGYYWSWIRQHPGKGLEWIGFIYYRGNTYYNPSLKSRVTISVDTSKNQFSLKLSSVTAADTAVYYCARDGYCSRTGCYGGWFDPWGQGTLVTVSP VL: DIVMTQTPLSSPVTLGQPASISCRSSQSLIHTDGNIYLSWLQQRPGQPPRLLIYKISNRFSGVPDRFSGSGAGTDFTLKISRVEAEDVGVYYCMQGTQFPITFGQGTRLEIK
3 | 20 |  | SC-EGFRvIII-XG2-150 (antibody, human IgG1, V domains shown) VH: QVQLQQSGPGLVKPSQTLSLTCAISGDSVSSYSSAWNWIRQSPSRGLEWLGRAYHRSRWYYEYAVSVKSRINITPDTSKNQFSLQLNSVTPEDTAVYYCARGSRFDYWGQGTLVTVSS VL: DIVMTQTPLSSPVTLGQPASISCRSSQSLVHRDGNTYLSWLQQRPGQPPRLLIYKISNRFSGVPDRFSGSGAGTDFTLKISRVEAEDVGIYFCMHTTQFPWTFGQGTRVEIK
4 |  | binds | SC-EGFRvIII-XG1-131 (antibody, V domains shown, Recombinant human antibody (XenoMax)) VH: QVQLVESGGGVVQSGRSLRLSCAASGFTFRNYGMHWVRQAPGKGLEWVAVIWYDGSDKYYADSVRGRFTISRDNSKNTLYLQMNSLRAEDTAVYYCARDGYDILTGNPRDFDYWGQGTLVTVSS VL: DTVMTQTPLSSHVTLGQPASISCRSSQSLVHSDGNTYLSWLQQRPGQPPRLLIYRISRRFSGVPDRFSGSGAGTDFTLEISRVEAEDVGVYYCMQSTHVPWTFGQGTKVEIK
5 | 80.8 |  | SC-EGFRvIII-XG1-139 (antibody, human IgG1, V domains shown) VH: EVQVLESGGGLVQPGGSLRLSCAASGFTFSSYAMSWVRQAPGKGLEWVSAISGSGGSTNYADSVKGRFTISRDNSKNTLYLQMNSLRAEDTAVYYCAGSSGWSEYWGQGTLVTVSS VL: DIQMTQSPSSLSASVGDRVTITCRASQGIRNNLAWYQQKPGKAPKRLIYAASNLQSGVPSRFTGSGSGTEFTLIVSSLQPEDFATYYCLQHHSYPLTSGGGTKVEIK
6 | 16.7 | binds | SC-EGFRvIII-XG1-250 (antibody, human IgG1, V domains shown, also called sc250; SC250) VH: EGQLLESGGGWVQPGESLRLSCAASGFTFSSYAMSWVRQAPGKGLEWVSAISGSGGSTNYADSVKGRFTISRDNSKNTLYLQVNSLRVEDTAVYYCAGSSGWSEYWGQGTLVTVSS VL: DIQMTQSPSSLSASVGDSVTITCRTSQGIRKNLGWYQQKPGKAPKRLIYAASSLQSGVPSRFSGSGSGTEFTLTISRLQPEDFATYYCLQHHSYPLTFGGGTRVEIR
7 | 82.5 |  | AB-EGFRvIII-XG1K-13.1.2 (antibody, V domains shown, Human IgG1 kappa from a XenoMouse G1 hybridoma; Residue numbers of the mutants count on this running numbering) VH: QVQLVESGGGVVQPGRSLRLSCAASGFTFSSYGMHWVRQAPGKGLEWVAVIWYDGSNKYYVDSVKGRFTISRDNSKNTLYLQMNSLRAEDTAVYYCARDGWQQLAPFDYWGQGTLVTVSS VL: not shown
8 | 21.6 |  | SC-EGFRvIII-XG1-211 (antibody, human IgG1, V domains shown) VH: QVQLVESGGGVVQPGRSLRLSCVASGFTLSSYGMHWVRQAPGKGLEWVAVTSYDGSKKDYADSAKGRFTISRDNSKNTLYLQMNSLRAEDTAVYYCVSEGYCSSSSCYKYYYYGMDVWGQGTTVTVSS VL: DIVMTQSPLSLPVTPGEPASISCRSSQSLLYRNGNNYLDWYLQRPGQSPQLLIYLGSNRASGVPDRFSGSGSGTDFTLKISRVEAEDVGVYYCMQALQTPRTFGQGTKVEIK
